According to patent US20220298218A1 (ANTAG THERAPEUTICS, published 2022):
*1 amine or outer side, *2 acyl side, *3 side chain or, on linkers, in order; H or OH if unused. Where no end group is shown, it is not given here. Side-chain parts run from the residue outwards. [ ]: non-standard residue; d: D form. The star is where a group is joined. phenyl lactic acid = phenyl lactic acid at the N-terminus; C16 diacid = O=C(O)CCCCCCCCCCCCCCC(=O)*; γGlu = O=C(O)[C@H](CCC(=O)[*:2])N[*:1]; Nle = CCCC[C@H](N)C(=O)O; Aib = CC(C)(N)C(=O)O

Target: T1, human GIP receptor (human, UniProt P48546 22-466)
T1 sequence (looked up): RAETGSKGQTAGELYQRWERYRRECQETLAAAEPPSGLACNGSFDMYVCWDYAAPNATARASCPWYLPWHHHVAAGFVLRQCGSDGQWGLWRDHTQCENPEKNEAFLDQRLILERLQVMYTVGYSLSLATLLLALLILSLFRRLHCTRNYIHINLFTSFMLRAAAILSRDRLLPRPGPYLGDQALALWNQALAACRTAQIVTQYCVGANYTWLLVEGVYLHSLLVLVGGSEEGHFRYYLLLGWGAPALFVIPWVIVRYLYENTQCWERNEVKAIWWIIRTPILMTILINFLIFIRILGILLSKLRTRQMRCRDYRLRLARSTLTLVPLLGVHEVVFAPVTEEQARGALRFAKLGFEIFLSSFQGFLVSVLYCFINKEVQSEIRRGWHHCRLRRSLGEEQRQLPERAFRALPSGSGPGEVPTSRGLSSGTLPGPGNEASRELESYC
Experiment: cell-based or functional assay

B1: AT644 (peptide)
peptide: GETFISDYAIALDKIK(C16 diacid)QQDFVEWLLAQGPSSGAPPPS-OH
modifications: N-terminus assumed
SMILES: CC[C@H](C)[C@H](NC(=O)[C@H](C)NC(=O)[C@H](Cc1ccc(O)cc1)NC(=O)[C@H](CC(=O)O)NC(=O)[C@H](CO)NC(=O)[C@@H](NC(=O)[C@H](Cc1ccccc1)NC(=O)[C@@H](NC(=O)[C@H](CCC(=O)O)NC(=O)CN)[C@@H](C)O)[C@@H](C)CC)C(=O)N[C@@H](C)C(=O)N[C@@H](CC(C)C)C(=O)N[C@@H](CC(=O)O)C(=O)N[C@@H](CCCCN)C(=O)N[C@H](C(=O)N[C@@H](CCCCNC(=O)CCCCCCCCCCCCCCC(=O)O)C(=O)N[C@@H](CCC(N)=O)C(=O)N[C@@H](CCC(N)=O)C(=O)N[C@@H](CC(=O)O)C(=O)N[C@@H](Cc1ccccc1)C(=O)N[C@H](C(=O)N[C@@H](CCC(=O)O)C(=O)N[C@@H](Cc1c[nH]c2ccccc12)C(=O)N[C@@H](CC(C)C)C(=O)N[C@@H](CC(C)C)C(=O)N[C@@H](C)C(=O)N[C@@H](CCC(N)=O)C(=O)NCC(=O)N1CCC[C@H]1C(=O)N[C@@H](CO)C(=O)N[C@@H](CO)C(=O)NCC(=O)N[C@@H](C)C(=O)N1CCC[C@H]1C(=O)N1CCC[C@H]1C(=O)N1CCC[C@H]1C(=O)N[C@@H](CO)C(=O)O)C(C)C)[C@@H](C)CC
B1 was tested, and the “cAMP agonism % Emax” value was 0%, the “cAMP antagonism” value was 17.1 nM and the “cAMP antagonism % inhib” value was 93%. The “cAMP antagonism pIC50” value was 7.8.

B2: AT650 (peptide)
peptide: EGTFISDYSIAMDKIK(C16 diacid)QQDFVNWLLAQKPSSGAPPPS-NH2
modifications: N-terminus assumed
SMILES: CC[C@H](C)[C@H](NC(=O)[C@H](CO)NC(=O)[C@H](Cc1ccc(O)cc1)NC(=O)[C@H](CC(=O)O)NC(=O)[C@H](CO)NC(=O)[C@@H](NC(=O)[C@H](Cc1ccccc1)NC(=O)[C@@H](NC(=O)CNC(=O)[C@@H](N)CCC(=O)O)[C@@H](C)O)[C@@H](C)CC)C(=O)N[C@@H](C)C(=O)N[C@@H](CCSC)C(=O)N[C@@H](CC(=O)O)C(=O)N[C@@H](CCCCN)C(=O)N[C@H](C(=O)N[C@@H](CCCCNC(=O)CCCCCCCCCCCCCCC(=O)O)C(=O)N[C@@H](CCC(N)=O)C(=O)N[C@@H](CCC(N)=O)C(=O)N[C@@H](CC(=O)O)C(=O)N[C@@H](Cc1ccccc1)C(=O)N[C@H](C(=O)N[C@@H](CC(N)=O)C(=O)N[C@@H](Cc1c[nH]c2ccccc12)C(=O)N[C@@H](CC(C)C)C(=O)N[C@@H](CC(C)C)C(=O)N[C@@H](C)C(=O)N[C@@H](CCC(N)=O)C(=O)N[C@@H](CCCCN)C(=O)N1CCC[C@H]1C(=O)N[C@@H](CO)C(=O)N[C@@H](CO)C(=O)NCC(=O)N[C@@H](C)C(=O)N1CCC[C@H]1C(=O)N1CCC[C@H]1C(=O)N1CCC[C@H]1C(=O)N[C@@H](CO)C(N)=O)C(C)C)[C@@H](C)CC
In the case of B2, the “cAMP agonism % Emax” value is reported as 0%, the “cAMP antagonism” value is reported as 3.69 nM and the “cAMP antagonism % inhib” value is reported as 94%. For the same binder, the “cAMP antagonism pIC50” value was 8.4.

B3: AT646 (peptide)
peptide: GETFISTYSIALDKIK(C16 diacid)QQDFVEWLLAQKPSSGAPPPS-OH
modifications: N-terminus assumed
SMILES: CC[C@H](C)[C@H](NC(=O)[C@H](CO)NC(=O)[C@H](Cc1ccc(O)cc1)NC(=O)[C@@H](NC(=O)[C@H](CO)NC(=O)[C@@H](NC(=O)[C@H](Cc1ccccc1)NC(=O)[C@@H](NC(=O)[C@H](CCC(=O)O)NC(=O)CN)[C@@H](C)O)[C@@H](C)CC)[C@@H](C)O)C(=O)N[C@@H](C)C(=O)N[C@@H](CC(C)C)C(=O)N[C@@H](CC(=O)O)C(=O)N[C@@H](CCCCN)C(=O)N[C@H](C(=O)N[C@@H](CCCCNC(=O)CCCCCCCCCCCCCCC(=O)O)C(=O)N[C@@H](CCC(N)=O)C(=O)N[C@@H](CCC(N)=O)C(=O)N[C@@H](CC(=O)O)C(=O)N[C@@H](Cc1ccccc1)C(=O)N[C@H](C(=O)N[C@@H](CCC(=O)O)C(=O)N[C@@H](Cc1c[nH]c2ccccc12)C(=O)N[C@@H](CC(C)C)C(=O)N[C@@H](CC(C)C)C(=O)N[C@@H](C)C(=O)N[C@@H](CCC(N)=O)C(=O)N[C@@H](CCCCN)C(=O)N1CCC[C@H]1C(=O)N[C@@H](CO)C(=O)N[C@@H](CO)C(=O)NCC(=O)N[C@@H](C)C(=O)N1CCC[C@H]1C(=O)N1CCC[C@H]1C(=O)N1CCC[C@H]1C(=O)N[C@@H](CO)C(=O)O)C(C)C)[C@@H](C)CC
In the case of B3, the “cAMP agonism % Emax” value is reported as 0%, the “cAMP antagonism” value is reported as 10 nM and the “cAMP antagonism % inhib” value is reported as 96%. The “cAMP antagonism pIC50” value was 8.

B4: AT642 (peptide)
peptide: PETFISDYSIAMDKIK(C16 diacid)QQDFVNWLLAQKPSSGAPPPS-OH
modifications: N-terminus assumed
SMILES: CC[C@H](C)[C@H](NC(=O)[C@H](CO)NC(=O)[C@H](Cc1ccc(O)cc1)NC(=O)[C@H](CC(=O)O)NC(=O)[C@H](CO)NC(=O)[C@@H](NC(=O)[C@H](Cc1ccccc1)NC(=O)[C@@H](NC(=O)[C@H](CCC(=O)O)NC(=O)[C@@H]1CCCN1)[C@@H](C)O)[C@@H](C)CC)C(=O)N[C@@H](C)C(=O)N[C@@H](CCSC)C(=O)N[C@@H](CC(=O)O)C(=O)N[C@@H](CCCCN)C(=O)N[C@H](C(=O)N[C@@H](CCCCNC(=O)CCCCCCCCCCCCCCC(=O)O)C(=O)N[C@@H](CCC(N)=O)C(=O)N[C@@H](CCC(N)=O)C(=O)N[C@@H](CC(=O)O)C(=O)N[C@@H](Cc1ccccc1)C(=O)N[C@H](C(=O)N[C@@H](CC(N)=O)C(=O)N[C@@H](Cc1c[nH]c2ccccc12)C(=O)N[C@@H](CC(C)C)C(=O)N[C@@H](CC(C)C)C(=O)N[C@@H](C)C(=O)N[C@@H](CCC(N)=O)C(=O)N[C@@H](CCCCN)C(=O)N1CCC[C@H]1C(=O)N[C@@H](CO)C(=O)N[C@@H](CO)C(=O)NCC(=O)N[C@@H](C)C(=O)N1CCC[C@H]1C(=O)N1CCC[C@H]1C(=O)N1CCC[C@H]1C(=O)N[C@@H](CO)C(=O)O)C(C)C)[C@@H](C)CC
For B4, the “cAMP agonism % Emax” value was 0%, the “cAMP antagonism” value was 35.5 nM and the “cAMP antagonism % inhib” value was 92%. For the same binder, the “cAMP antagonism pIC50” value was 7.5.

With EGTFISTYK([γGlu-C16 diacid])IALDKIHQQDFVEWLLAQKPSSGAPPPS-OH [AT647] the “cAMP agonism % Emax” value was 0%, the “cAMP antagonism” value was 18.8 nM and the “cAMP antagonism % inhib” value was 100%. For the same binder, the “cAMP antagonism pIC50” value was 7.7.

For EGTFISDYSI[Aib][Nle]DKIK(C16 diacid)QQDFVEWLLAQKPSSGAPPPS-OH [AT667], the “cAMP agonism % Emax” value was 4%, the “cAMP antagonism” value was 0.736 nM and the “cAMP antagonism % inhib” value was 86%. The “cAMP antagonism pIC50” value was 9.1.

With {phenyl lactic acid}-PGTFISDYSIAMDKIKQQDFVNWLLAQKPSSGAPPPSK(C16 diacid)-NH2 (not fully specified) [AT652] the “cAMP agonism % Emax” value was 17%, the “cAMP antagonism” value was 10.6 nM and the “cAMP antagonism % inhib” value was 60%. The “cAMP antagonism pIC50” value was 8.

B5: AT643 (peptide)
peptide: DTTFISDYSIAMDKIK(C16 diacid)QQDFVNWLLAQKPSSGAPPPS-OH
modifications: N-terminus assumed
SMILES: CC[C@H](C)[C@H](NC(=O)[C@H](CO)NC(=O)[C@H](Cc1ccc(O)cc1)NC(=O)[C@H](CC(=O)O)NC(=O)[C@H](CO)NC(=O)[C@@H](NC(=O)[C@H](Cc1ccccc1)NC(=O)[C@@H](NC(=O)[C@@H](NC(=O)[C@@H](N)CC(=O)O)[C@@H](C)O)[C@@H](C)O)[C@@H](C)CC)C(=O)N[C@@H](C)C(=O)N[C@@H](CCSC)C(=O)N[C@@H](CC(=O)O)C(=O)N[C@@H](CCCCN)C(=O)N[C@H](C(=O)N[C@@H](CCCCNC(=O)CCCCCCCCCCCCCCC(=O)O)C(=O)N[C@@H](CCC(N)=O)C(=O)N[C@@H](CCC(N)=O)C(=O)N[C@@H](CC(=O)O)C(=O)N[C@@H](Cc1ccccc1)C(=O)N[C@H](C(=O)N[C@@H](CC(N)=O)C(=O)N[C@@H](Cc1c[nH]c2ccccc12)C(=O)N[C@@H](CC(C)C)C(=O)N[C@@H](CC(C)C)C(=O)N[C@@H](C)C(=O)N[C@@H](CCC(N)=O)C(=O)N[C@@H](CCCCN)C(=O)N1CCC[C@H]1C(=O)N[C@@H](CO)C(=O)N[C@@H](CO)C(=O)NCC(=O)N[C@@H](C)C(=O)N1CCC[C@H]1C(=O)N1CCC[C@H]1C(=O)N1CCC[C@H]1C(=O)N[C@@H](CO)C(=O)O)C(C)C)[C@@H](C)CC
B5 was tested, and the “cAMP agonism % Emax” value was 0%, the “cAMP antagonism” value was 11.2 nM and the “cAMP antagonism % inhib” value was 90%. For the same binder, the “cAMP antagonism pIC50” value was 8.

EGTFISDYSI[Aib]MDKIK(C16 diacid)QQDFVEWLLAQKPSSGAPPPS-OH [AT665] was tested, and the “cAMP agonism % Emax” value was 0%, the “cAMP antagonism” value was 0.15 nM and the “cAMP antagonism % inhib” value was 88%. For the same binder, the “cAMP antagonism pIC50” value was 9.8.
